The values that follow come from patent publication US20180127487A1 (Sanofi, published 2018).

The target in experiment [1] is T1, Recombinant human HPC4-tagged FcγRIIIa-V158 (human, UniProt P08637 17-208).
T1 construct: Valine at 158 is a polymorphism, named without an old residue; also called Val158; not shown: HPC4 tag
As to the kind of experiment: SPR (Biacore 3000), HPC4-tagged FcγRIIIa-V158 captured on anti-HPC4 CM5 chip, antibody injected 2 min, in duplicate; concentration (900, 300 or 100 nM in the methods) not printed on the sheet. (SPR reads the build-up and loss of mass on a sensor chip optically.)

The target in experiment [2] is T2, Recombinant human HPC4-tagged FcγRIII-F158 (human, UniProt P08637 17-208).
T2 construct: also called FcγRIIIaF158; not shown: HPC4 tag
T2 sequence (P08637 17-208): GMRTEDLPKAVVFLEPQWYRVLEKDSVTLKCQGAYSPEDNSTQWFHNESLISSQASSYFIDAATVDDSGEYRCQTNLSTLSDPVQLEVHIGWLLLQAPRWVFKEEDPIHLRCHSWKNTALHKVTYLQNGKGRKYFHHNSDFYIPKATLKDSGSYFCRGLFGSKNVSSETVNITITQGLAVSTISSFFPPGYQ
As to the kind of experiment: SPR (Biacore 3000), HPC4-tagged FcγRIII-F158 captured on anti-HPC4 CM5 chip, antibody injected 2 min, in duplicate; concentration (900, 300 or 100 nM in the methods) not printed on the sheet.

The target in experiment [3] is T3, recombinant mouse FcRn (mouse, UniProt Q61559 22-297; P01887 21-119).
T3 sequence 1: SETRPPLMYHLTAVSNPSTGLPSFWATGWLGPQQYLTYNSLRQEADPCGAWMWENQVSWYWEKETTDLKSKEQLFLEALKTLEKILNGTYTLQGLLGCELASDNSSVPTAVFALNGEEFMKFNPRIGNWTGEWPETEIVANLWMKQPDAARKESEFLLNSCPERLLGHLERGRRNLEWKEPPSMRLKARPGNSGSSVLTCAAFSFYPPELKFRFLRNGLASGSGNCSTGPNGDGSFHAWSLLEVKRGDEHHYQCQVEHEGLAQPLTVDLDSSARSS
T3 sequence 2: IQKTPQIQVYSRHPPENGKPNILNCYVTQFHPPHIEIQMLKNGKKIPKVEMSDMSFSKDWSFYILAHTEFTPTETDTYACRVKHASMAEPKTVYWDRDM
Kind of experiment: SPR (Biacore T200), mouse FcRn immobilised on CM5 chip.

The target in another experiment is Antigen (E2) (Chikungunya virus). As to the kind of experiment: SPR (Biacore T200), His-tagged antigen captured by anti-His antibody, 1:1 model.
The target of experiment [4] is T4, recombinant human FcRn (human, UniProt P55899 24-297; P61769 21-119).
T4 construct: also called human FcRn receptor
T4 sequence (P55899 24-297 limits assumed, chain 1 of 2): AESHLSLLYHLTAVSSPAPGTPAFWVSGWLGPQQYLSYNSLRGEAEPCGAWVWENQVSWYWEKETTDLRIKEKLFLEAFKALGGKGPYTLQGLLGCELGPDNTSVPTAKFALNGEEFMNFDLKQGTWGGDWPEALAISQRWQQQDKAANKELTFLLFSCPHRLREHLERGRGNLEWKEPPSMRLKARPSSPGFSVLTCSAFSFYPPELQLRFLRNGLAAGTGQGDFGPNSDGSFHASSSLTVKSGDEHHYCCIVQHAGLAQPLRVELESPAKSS
T4 sequence (P61769 21-119 limits assumed, chain 2 of 2): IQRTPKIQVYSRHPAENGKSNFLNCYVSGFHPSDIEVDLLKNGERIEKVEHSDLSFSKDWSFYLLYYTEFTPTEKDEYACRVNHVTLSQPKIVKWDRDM
Kind of experiment: SPR (Biacore T200), human FcRn immobilised on CM5 chip.

The target of experiment [5] is T4, recombinant human FcRn. As to the kind of experiment: SPR, human FcRn immobilised; relative to mAb2.
In experiment [6] the target is T5, His-tagged CHIKV E2 LR2006 (Chikungunya virus strain LR2006, UniProt Q8JUX5 326-1220).
T5 construct: also called CHIKV pE2-E1 antigen derived from CHIKV strain LR2006; pE2-E1 target

The target in experiment [7] is T3, recombinant mouse FcRn. As to the kind of experiment: SPR, mouse FcRn immobilised; relative to mAb2.
For experiment [8], the target named is T5, His-tagged CHIKV E2 LR2006. Kind of experiment: SPR, His-tagged antigen captured.
Experiment [9] deals with T6, His-tagged CHIKV E2 SL15649 (Chikungunya virus strain SL15649, UniProt Q8JUX5 326-1220).
T6 construct: also called CHIKV pE2-E1 antigen derived from CHIKV strain SL15649; pE2-E1 target
As to the kind of experiment: SPR, His-tagged antigen captured.

Experiment [10] deals with T5, His-tagged CHIKV E2 LR2006. As to the kind of experiment: SPR, His-tagged antigen captured (example 3, FIG. 5).
The target in experiment [11] is T6, His-tagged CHIKV E2 SL15649. The experiment is described as above.

Like-named read-outs stand apart in the source and are kept apart here.

T1 sequence (P08637 17-208 F176V): as the sequence (P08637 17-208) above, with F160V counted along it

B1: mAb2 (antibody)
heavy: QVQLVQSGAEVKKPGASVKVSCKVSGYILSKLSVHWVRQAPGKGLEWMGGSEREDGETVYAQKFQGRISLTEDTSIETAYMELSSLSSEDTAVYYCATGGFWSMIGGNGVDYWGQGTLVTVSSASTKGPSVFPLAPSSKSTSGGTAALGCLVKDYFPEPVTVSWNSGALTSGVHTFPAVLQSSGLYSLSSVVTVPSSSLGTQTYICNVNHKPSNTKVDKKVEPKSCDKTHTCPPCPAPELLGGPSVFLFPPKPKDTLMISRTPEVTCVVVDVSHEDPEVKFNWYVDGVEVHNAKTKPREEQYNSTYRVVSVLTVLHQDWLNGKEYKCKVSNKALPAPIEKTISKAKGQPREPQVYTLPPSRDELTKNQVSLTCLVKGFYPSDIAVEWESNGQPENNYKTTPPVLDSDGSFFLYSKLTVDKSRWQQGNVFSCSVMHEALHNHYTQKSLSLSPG
light: QAVVTQSPSSLPASVGDRVTITCRASQDIRNNLGWYQQKPGKAPERLIYGTSNLQSGVPSRFSGSGSGTEFTLTISSLQPEDFATYYCLQHNSYPPTFGRGTKVEIKRTVAAPSVFIFPPSDEQLKSGTASVVCLLNNFYPREAKVQWKVDNALQSGNSQESVTEQDSKDSTYSLSSTLTLSKADYEKHKVYACEVTHQGLSSPVTKSFNRGEC
notes: also called parent antibody mAb2
A word on the Kd: it is the equilibrium constant for the complex coming apart. Turning to B1, the binding result in [1], in experiment [2] and in experiment [6] was “binds” throughout. Further, the Kd is 22 nM in the experiment with recombinant mouse FcRn [3], 0.13 nM with Antigen (E2) and 328 nM in the experiment with recombinant human FcRn [4]. The “Affinity Increase (fold)” value with recombinant human FcRn [5] and with recombinant mouse FcRn [7] was 1 fold throughout.

B2: mAb8 (antibody)
heavy: QVQLVQSGAEVKKPGASVKVSCKVSGYILSKLSVHWVRQAPGKGLEWMGGSEREDGETVYAQKFQGRISLTEDTSIETAYMELSSLSSEDTAVYYCATGGFWSMIGGNGVDYWGQGTLVTVSSASTKGPSVFPLAPSSKSTSGGTAALGCLVKDYFPEPVTVSWNSGALTSGVHTFPAVLQSSGLYSLSSVVTVPSSSLGTQTYICNVNHKPSNTKVDKKVEPKSCDKTHTCPPCPAPELLGGPSVFLFPPKPKDTLYITREPEVTCVVVDVSHEDPEVKFNWYVDGVEVHNAKTKPREEQYNSTYRVVSVLTVLHQDWLNGKEYKCKVSNKALPAPIEKTISKAKGQPREPQVYTLPPSRDELTKNQVSLTCLVKGFYPSDIAVEWESNGQPENNYKTTPPVLDSDGSFFLYSKLTVDKSRWQQGNVFSCSVMHEALHNHYTQKSLSLSPG
light: QAVVTQSPSSLPASVGDRVTITCRASQDIRNNLGWYQQKPGKAPERLIYGTSNLQSGVPSRFSGSGSGTEFTLTISSLQPEDFATYYCLQHNSYPPTFGRGTKVEIKRTVAAPSVFIFPPSDEQLKSGTASVVCLLNNFYPREAKVQWKVDNALQSGNSQESVTEQDSKDSTYSLSSTLTLSKADYEKHKVYACEVTHQGLSSPVTKSFNRGEC
notes: also called mAb2YTE
For the molecule B2, the binding result in [1], in [2], in [8] and in [9] was “binds” each time. Besides, the dissociation constant Kd was 1.2 nM in the experiment with recombinant mouse FcRn [3] and 23 nM with recombinant human FcRn [4]. Further, the results for the “Affinity Increase (fold)” value with recombinant human FcRn [5] and in the experiment with recombinant mouse FcRn [7] were 14.1 fold and 19.5 fold, respectively.

B3: mAb14 (antibody)
heavy: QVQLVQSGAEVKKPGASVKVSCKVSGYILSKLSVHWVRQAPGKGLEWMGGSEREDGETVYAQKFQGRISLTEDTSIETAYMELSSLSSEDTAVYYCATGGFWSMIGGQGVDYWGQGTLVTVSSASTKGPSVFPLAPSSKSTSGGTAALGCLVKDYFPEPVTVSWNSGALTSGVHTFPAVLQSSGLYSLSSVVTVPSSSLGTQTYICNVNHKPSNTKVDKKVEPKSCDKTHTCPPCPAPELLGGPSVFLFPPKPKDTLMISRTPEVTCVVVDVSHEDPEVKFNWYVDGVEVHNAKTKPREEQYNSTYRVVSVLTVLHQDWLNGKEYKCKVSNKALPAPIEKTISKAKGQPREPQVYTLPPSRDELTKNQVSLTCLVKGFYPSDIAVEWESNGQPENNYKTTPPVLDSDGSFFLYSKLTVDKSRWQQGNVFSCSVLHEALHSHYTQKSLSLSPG
light: QAVVTQSPSSLPASVGDRVTITCRASQDIRNNLGWYQQKPGKAPERLIYGTSNLQSGVPSRFSGSGSGTEFTLTISSLQPEDFATYYCLQHNSYPPTFGRGTKVEIKRTVAAPSVFIFPPSDEQLKSGTASVVCLLNNFYPREAKVQWKVDNALQSGNSQESVTEQDSKDSTYSLSSTLTLSKADYEKHKVYACEVTHQGLSSPVTKSFNRGEC
notes: also called mAb2N108QLS
Regarding B3, the binding result in [1], in [2], in experiment [10] and in [11] was “binds” in each case. Moreover, the results for the Kd with recombinant mouse FcRn [3], with Antigen (E2) and with recombinant human FcRn [4] were 6.2 nM, 0.12 nM and 18 nM, respectively. For the same molecule, the “Affinity Increase (fold)” value turned out to be 18.2 fold in the experiment with recombinant human FcRn [5] and 3.6 fold with recombinant mouse FcRn [7].

B4: mAb9 (antibody)
heavy: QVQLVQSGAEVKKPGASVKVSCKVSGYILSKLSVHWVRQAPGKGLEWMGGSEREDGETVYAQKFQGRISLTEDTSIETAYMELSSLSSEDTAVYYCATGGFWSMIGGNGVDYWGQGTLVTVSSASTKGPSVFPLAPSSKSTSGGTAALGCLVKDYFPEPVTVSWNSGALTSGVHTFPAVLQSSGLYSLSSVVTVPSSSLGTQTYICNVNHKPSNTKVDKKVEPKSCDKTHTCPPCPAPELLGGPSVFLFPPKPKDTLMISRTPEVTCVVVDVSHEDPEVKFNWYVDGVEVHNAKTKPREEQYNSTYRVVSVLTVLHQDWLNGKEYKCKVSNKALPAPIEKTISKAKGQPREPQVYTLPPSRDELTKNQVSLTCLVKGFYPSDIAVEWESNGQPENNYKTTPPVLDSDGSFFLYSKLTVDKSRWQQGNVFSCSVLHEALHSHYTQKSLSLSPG
light: QAVVTQSPSSLPASVGDRVTITCRASQDIRNNLGWYQQKPGKAPERLIYGTSNLQSGVPSRFSGSGSGTEFTLTISSLQPEDFATYYCLQHNSYPPTFGRGTKVEIKRTVAAPSVFIFPPSDEQLKSGTASVVCLLNNFYPREAKVQWKVDNALQSGNSQESVTEQDSKDSTYSLSSTLTLSKADYEKHKVYACEVTHQGLSSPVTKSFNRGEC
notes: also called mAb2LS
On to B4, for which the binding result in [1], in experiment [2], in experiment [8] and in [9] was “binds” throughout. Further, the Kd amounted to 7.5 nM in the experiment with recombinant mouse FcRn [3], 0.25 nM in the experiment with Antigen (E2) and 20 nM in the experiment with recombinant human FcRn [4]. Moreover, the “Affinity Increase (fold)” value worked out at 16.6 fold with recombinant human FcRn [5] and 3 fold with recombinant mouse FcRn [7].

B5: mAb13 (antibody)
heavy: QVQLVQSGAEVKKPGASVKVSCKVSGYILSKLSVHWVRQAPGKGLEWMGGSEREDGETVYAQKFQGRISLTEDTSIETAYMELSSLSSEDTAVYYCATGGFWSMIGGQGVDYWGQGTLVTVSSASTKGPSVFPLAPSSKSTSGGTAALGCLVKDYFPEPVTVSWNSGALTSGVHTFPAVLQSSGLYSLSSVVTVPSSSLGTQTYICNVNHKPSNTKVDKKVEPKSCDKTHTCPPCPAPELLGGPSVFLFPPKPKDTLYITREPEVTCVVVDVSHEDPEVKFNWYVDGVEVHNAKTKPREEQYNSTYRVVSVLTVLHQDWLNGKEYKCKVSNKALPAPIEKTISKAKGQPREPQVYTLPPSRDELTKNQVSLTCLVKGFYPSDIAVEWESNGQPENNYKTTPPVLDSDGSFFLYSKLTVDKSRWQQGNVFSCSVMHEALHNHYTQKSLSLSPG
light: QAVVTQSPSSLPASVGDRVTITCRASQDIRNNLGWYQQKPGKAPERLIYGTSNLQSGVPSRFSGSGSGTEFTLTISSLQPEDFATYYCLQHNSYPPTFGRGTKVEIKRTVAAPSVFIFPPSDEQLKSGTASVVCLLNNFYPREAKVQWKVDNALQSGNSQESVTEQDSKDSTYSLSSTLTLSKADYEKHKVYACEVTHQGLSSPVTKSFNRGEC
notes: also called mAb2N108QYTE
In the case of B5, the binding result in [1], in [2], in experiment [10] and in experiment [11] was “binds” in each case. The Kd is 1.6 nM with recombinant mouse FcRn [3] and 24 nM with recombinant human FcRn [4]. In addition, the “Affinity Increase (fold)” value in the experiment with recombinant human FcRn [5] and in the experiment with recombinant mouse FcRn [7] was 13.7 fold throughout.

B6: mAb11 (antibody)
heavy: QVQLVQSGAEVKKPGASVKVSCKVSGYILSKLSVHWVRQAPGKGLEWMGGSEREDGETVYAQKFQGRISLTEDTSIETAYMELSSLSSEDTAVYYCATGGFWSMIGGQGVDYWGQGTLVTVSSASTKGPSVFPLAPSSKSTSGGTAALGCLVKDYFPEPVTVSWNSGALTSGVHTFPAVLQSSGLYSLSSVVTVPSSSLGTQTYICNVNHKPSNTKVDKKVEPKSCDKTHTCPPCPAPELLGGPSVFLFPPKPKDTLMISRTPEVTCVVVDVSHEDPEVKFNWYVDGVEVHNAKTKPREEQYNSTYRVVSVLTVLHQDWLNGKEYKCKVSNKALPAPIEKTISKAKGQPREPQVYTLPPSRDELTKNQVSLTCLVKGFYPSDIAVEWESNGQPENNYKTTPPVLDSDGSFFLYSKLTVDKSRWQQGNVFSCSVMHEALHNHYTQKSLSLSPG
light: QAVVTQSPSSLPASVGDRVTITCRASQDIRNNLGWYQQKPGKAPERLIYGTSNLQSGVPSRFSGSGSGTEFTLTISSLQPEDFATYYCLQHNSYPPTFGRGTKVEIKRTVAAPSVFIFPPSDEQLKSGTASVVCLLNNFYPREAKVQWKVDNALQSGNSQESVTEQDSKDSTYSLSSTLTLSKADYEKHKVYACEVTHQGLSSPVTKSFNRGEC
notes: also called mAb2N108Q; mAb2 N108Q
As to B6, the binding result in experiment [1], in [2] and in [6] was “binds” throughout. For the same molecule, the Kd was 20 nM in the experiment with recombinant mouse FcRn [3], 0.22 nM with Antigen (E2) and 301 nM with recombinant human FcRn [4]. Also, the “Affinity Increase (fold)” value in the experiment with recombinant human FcRn [5] and in the experiment with recombinant mouse FcRn [7] was 1.1 fold each time.
